Assay results from publication PMC11404848 (2024).

Target: Sensor^BtsK (Stenotrophomonas maltophilia CGMCC …, labelled with the Monolith NT.115 Protein Labeling Kit Red NHS (a dye that reacts with amines))
Assay: MST

B1: BtsD^Δ(SP-GGDEF) (domain or fragment)
chain: APPLRDYAIDVWTSRNGLPHNSLRDIAQTPEGHLWFATWEGLVRYNGLDFTVFDRSTRPGLRDNGIGALLVDRQGGLWISDSRGNVSHRGNDGQWRVWEHQADTPQVLIQSMQMDSQGRLWLLYEGKGIGYLTPDKGIVYQAPAADLPMAMSFTKLVVDAQDRVWVGTLDGLVLRDNDGVLKRAPAAWGLGAGTGLSWPYRAPDGALWIVAGERLYRVEDDQLVLVHRLPGQLHMTSMLQDRHGDLWLGTENQGLLRISAHGLERLPAGLNLPGGRVVSLREDAEGSIWVGANGGLYRLRETLFSSYTERDGLSGDYVRTVLEDRDRQLWVGSASGLDLQTPDGRFRAVPLHNRGGKAPSVLSLAQGPDGDLWVGTFGDGVYRLDRDGSLRHNYAAADGMPGGNIRAISVDPQGRVWAGTQKGVVRIDGDRVQVSTAPGMPGGLITALEHDHQGNLWIGTIEGIRVLRGDHVQSIDLAPMGGGRSVFGFHQLGEAMWISSDRGLYRWRDGKLARVGLEQGMPVDAVFQLVPDRLGNVWISSNRGVLRTDMATLNAVADGRAPRVVVERYNEIDGMANAQANGSSGPSAILRQDGTFWVVTAGGLSTVDPQRLQRFRERPSPPAAIESVQVDGAPVHWEGPDRNYIPGGRRLAVSYVGLSYLMSDRIRYRTRLEGLDAGWVERGPQRSVEFVGLPPGDYTLHVSAAHPGGAWGQQEAVWSFTVEPFWWQRRSVQLLGGLLLLAGLVVLYRLLLQQLKASNLRLARRVDEATFDLQAKTVHLQALNQEKTELAER
Kd: 3.17 µM
